Reference: patent US11091512B2, “Modulation of antigen immunogenicity by deleting epitopes recognized by NKT cells” (Imnate Sarl, priority 2010, dated 2021)

System: CD4+ T cells and NKT cells
Test: peripheral blood CD4+ T cells cultured with human dendritic cells loaded with natural or mutated antibody
Format: cell-based
Conditions: 5 to 7 days culture
Description: Monoclonal human antibodies of the IgG4 isotype were derived from the peripheral blood B lymphocytes by transformation with the Epstein-Barr virus. The genomic sequence of such antibodies was obtained from transformed B cells. A viral vector containing the corresponding cDNA sequence was constructed and used for transfection of CHO cells. All these methods are known in the art (see for instance, Jacquemin et al Blood 92: 496-506, 1998).
The hydrophobic aminoacid residues located in position 1 in the peptides of SEQ ID18 and SEQ ID20 were mutated to a serine and the mutated antibody produced by transfected CHO cells.
Peripheral blood CD4+ T cells obtained as above were exposed in culture medium to human dendritic cells (derived from human peripheral blood monocytes by methods known in the art) and loaded with either the antibody in natural configuration (SEQ ID21) or its mutated counterpart (SEQ ID22). After culturing the cells with CD4+ T cells for 5 to 7 days, the population of CD4+ T cells activated by either natural or mutated antibody was evaluated. CD4+ NKT cells were separated from CD4+ T cells using an antibody to NKG2D, a surface marker associated with NK or NKT cells only.

B1: SEQ ID22: mutated counterpart of the IgG4 antibody, position 1 residues of SEQ ID18 and SEQ ID20 motifs mutated to serine (protein, listed as Homo sapiens)
chain: ASTKGPSVFPLAPCSRSTSESTAALGCLVKDYFPEPVTVSWNSGALTSGVHTFPAVLQSSGLYSLSSVVTVPSSSLGTKTYTCNVDHKPSNTKVDKRVESKYGPPCPSCPAPEFLGGPSVFLFPPKPKDTLMISRTPEVTCVVVDVSQEDPEVQFNWYVDGVEVHNAKTKPREEQFNSTSRVVSVLTVLHQDWLNGKEYKCKVSNKGLPSSIEKTISKAKGQPREPQVYTLPPSQEEMTKNQVSLTCLVKGFYPSDIAVEWESNGQPENNYKTTPPVLDSDGSFFLYSRLTVDKSRWQEGNVFSCSVMSEALHNHYTQKSLSLSLGK
- activation of class II restricted CD4+ T cells: only activate class II restricted CD4+ T cells
- activation of NKT cells (NKT cells separated with antibody to NKG2D): not NKT cells
